± gives the half width of the 95% confidence interval.

A short description of data set [1]: folding stability dG unfold from trypsin proteolysis; higher = more stable. The gist of the method:
(§1)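 Designed mini-proteins (under 80 residues, no cysteine) in a PA-tagged cDNA display construct were digested with trypsin and chymotrypsin. Each protease was used at 11 concentrations (threefold dilutions) plus a no-protease condition, followed by sequencing. K50 was inferred by Bayesian fitting of sequencing counts, and unfolding free energy was derived against a sequence-predicted unfolded-state K50 and a shared folded-state K50, per protease or combined. Only designs with AlphaFold2 dimer inter-PAE above 15 were kept.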

The nature of data set [2]: folding stability dG unfold from chymotrypsin proteolysis; higher = more stable. The method in brief:
as §1

The nature of data set [3]: folding stability dG unfold (combined trypsin and chymotrypsin); higher = more stable. The method in brief:
as §1

For the sequence “SAGEIEEILIENPETNEVYRITKVETTVELDEDGNLHTTTKVEIEKVEPPPPPEPEVEVEVKPGEKVELSAG [r5_212_TrROS_Hall]”, the figures for the “folding stability dG unfold” value in data set [1], in data set [2] and in data set [3] were 0.225 ± 0.068 kcal/mol, -0.00362 ± 0.42 kcal/mol and < -1 kcal/mol, respectively.

For “SAGEIKIKVEEVDPEKPYVRVTIEIKLEPGQSIEEALKKLLKPGVEEAKIVKVEEENGYLKIEILVRRKSAG [r5_227_TrROS_Hall]”, the “folding stability dG unfold” value in data set [1] was 3.22 ± 0.14 kcal/mol; in data set [2] it was 4.54 ± 0.28 kcal/mol; in data set [3], 4.01 ± 0.27 kcal/mol.

Consider “SAGEIVIPIPFDWEQAPRMAKHLLRRFQQEGKKIRIWVPDAGAVEAIKDALPPNFPIEVEPLKPGEPIPSAG [r5_911_TrROS]”, for which the “folding stability dG unfold” value turned out to be 0.299 ± 0.34 kcal/mol in data set [1], 1.27 ± 0.27 kcal/mol in data set [2] and 0.909 ± 0.14 kcal/mol in data set [3].

For the sequence “SAGEKIKEKIKEILKELFPDAEVEIKTLPDGTIIIKLKKDKKIIVIKKTKDGKIKIVKVMTAEELKKLSSAG [r5_852_TrROS_Hall]”, the “folding stability dG unfold” value was found to be 2.15 ± 0.079 kcal/mol in data set [1], 1.01 ± 0.26 kcal/mol in data set [2] and 1.51 ± 0.29 kcal/mol in data set [3].

Turning to “SAGELEVTVTVRTETRTETREEEERRRREAAPPVRLRVFFPDTGLAVELEFDANGNIVSVKVTELPEDLSAG [r5_342_TrROS_Hall]”, the “folding stability dG unfold” value amounted to 1.87 ± 0.11 kcal/mol in data set [1], 2.67 ± 0.051 kcal/mol in data set [2] and 2.39 ± 0.1 kcal/mol in data set [3].

For “SAGEMVVLRIRVKVPVTEVKFDKETGELTVEKKTVTREITLTVPADSPEARELAEKLRELGFEVEVVEASAG [r5_468_TrROS_Hall]”, the “folding stability dG unfold” value worked out at 3.35 ± 0.14 kcal/mol in data set [1], 3.53 ± 0.042 kcal/mol in data set [2] and 3.43 ± 0.062 kcal/mol in data set [3].

For “SAGEPIRIKIMIMNPDGKLRPIVEIPIPPDDIKEIEIKDDSIEIELPGDGKTLMFRINNYPIMIQIEDSAGG [r19_408_TrROS]”, the “folding stability dG unfold” value was determined as 2.06 ± 0.029 kcal/mol in data set [1], 3.2 ± 0.036 kcal/mol in data set [2] and 2.77 ± 0.11 kcal/mol in data set [3].

On to “SAGEPLVPLSEYELDVPGGQKVKIEIYALPDGTVVVRITDSEGNESEITIPRAELEKLSPEEIVARLSSAGG [r19_47_JUSTAS]”, for which the “folding stability dG unfold” value in data set [1] was determined as 3.71 ± 0.14 kcal/mol; in data set [2] it was 3.57 ± 0.093 kcal/mol; in data set [3] it was 3.67 ± 0.098 kcal/mol.

With “SAGEREELLERAKELARKLAEELGVEVEVTVTVEERDDSVTITVTVTVRNEDGSTHTFTFTFTLKKEDLSAG [r5_609_TrROS_Hall]”, the “folding stability dG unfold” value came to 3.83 ± 0.14 kcal/mol in data set [1], 5.55 ± 0.2 kcal/mol in data set [2] and 5.43 ± 0.13 kcal/mol in data set [3].

With “SAGEVAPEEIRKIAEEIAKKLGLKNVKVEVSRDEETGEITVKIEVDIPESKKEKKEELEKAIKEKLGLKSAG [r5_9_JUSTAS]”, the “folding stability dG unfold” value in data set [1] turned out to be 1.97 ± 0.084 kcal/mol; in data set [2] it was 2.96 ± 0.094 kcal/mol; in data set [3], 2.7 ± 0.17 kcal/mol.

Consider “SAGFDWRTVKFPISPELRDKLKEDGFEIVGTSPNYITITVPVVPPPSPEELEEAEKEGMTWEEARDKASAGG [r19_115_TrROS]”, for which the “folding stability dG unfold” value in data set [1] was -0.0911 ± 0.091 kcal/mol; in data set [2], -0.652 ± 0.82 kcal/mol; in data set [3], -0.0214 ± 0.26 kcal/mol.

On to “SAGFEFPPGQEIEFKVQYTSPMPNPDGGWGPVTETYEITIEIVPVPPIPFKDPAQAEELRQKGLPPDDLSAG [r5_624_TrROS]”, for which the results for the “folding stability dG unfold” value in data set [1], in data set [2] and in data set [3] were 0.546 ± 0.06 kcal/mol, 1.44 ± 0.041 kcal/mol and 1.23 ± 0.14 kcal/mol, respectively.

As for “SAGFKIVDVEPTDGRLEITIPIDKPGDALMFMVPFPNAKITPDPNGKITITIPPGGWYMIMIRLKKDASAGG [r19_227_TrROS]”, the entries for the “folding stability dG unfold” value in data set [1], in data set [2] and in data set [3] were 2.33 ± 0.037 kcal/mol, 2.67 ± 0.091 kcal/mol and 2.6 ± 0.14 kcal/mol, respectively.

Take “SAGFVPGKLKAVDPNGNEIDVIEIEELPNGKVIAKGKNKTNGFPYIATYDPVSGKVYIILPNGKVIEIGSAG [r5_809_TrMRF]”: the “folding stability dG unfold” value in data set [1] worked out at 0.867 ± 0.074 kcal/mol; in data set [2], 1.82 ± 0.12 kcal/mol; in data set [3] it was 1.55 ± 0.13 kcal/mol.

As to “SAGGAEEKIREIAEKLGVKEVLSADEAEKLPPEYPKRIAVVPRPDGSVLVIVRLENGEVLVIEFPVDSAGGS [r16_686_TrMRF]”, the results for the “folding stability dG unfold” value in data set [1], in data set [2] and in data set [3] were 1.45 ± 0.044 kcal/mol, 2.49 ± 0.035 kcal/mol and 2.15 ± 0.086 kcal/mol, respectively.

For “SAGGAFAVVDAGDKVITITVYNPDGELVAPAEIPVLDPETGESDALNIPLEELEKLAGVPIELEPAGSAGGS [r16_778_TrMRF]”, the “folding stability dG unfold” value in data set [1] was 0.977 ± 0.059 kcal/mol; in data set [2] it was 1 ± 0.025 kcal/mol; in data set [3], 1.03 ± 0.1 kcal/mol.

Turning to “SAGGAHEMEWKHEYELPPYRLKVELEWYYDPDGNPQPSIETIEIRPVPPPTIDAEDLPPEQAKENGIASAGG [r13_964_TrROS]”, the “folding stability dG unfold” value in data set [1] stood at 1.13 ± 0.11 kcal/mol; in data set [2], 1.23 ± 0.087 kcal/mol; in data set [3], 1.08 ± 0.38 kcal/mol.

Regarding “SAGGAIELPDLGEEEAIETLKKLAEEGIKNPVGVIRTPTKPLVITYDPETNTVTITLPDGTILTLVVSAGGS [r16_481_JUSTAS]”, the figures for the “folding stability dG unfold” value in data set [1], in data set [2] and in data set [3] were 0.755 ± 0.091 kcal/mol, 1.83 ± 0.028 kcal/mol and 1.52 ± 0.11 kcal/mol, respectively.

On to “SAGGAKELFEAIPGAEAEYDPETGTLRVRFEFPDYTVLVEIPTDKETGEVLGVRVYVIDKDGVPHEIDLSAG [r5_367_TrMRF]”, for which the results for the “folding stability dG unfold” value in data set [1], in data set [2] and in data set [3] were 3.26 ± 0.24 kcal/mol, 4.81 ± 0.15 kcal/mol and 4.52 ± 0.23 kcal/mol, respectively.

As for “SAGGALENAPITVNVTITITLKDEKGNTPVITIPVTATVTSQAEADALVNATAAALEAALGATVTVASAGGS [r8_149_JUSTAS]”, the entries for the “folding stability dG unfold” value in data set [1], in data set [2] and in data set [3] were 1.65 ± 0.12 kcal/mol, 2.04 ± 0.14 kcal/mol and 1.95 ± 0.096 kcal/mol, respectively.

As to “SAGGAMSSPVGTVTLTSPAGETVTITVYPGKTEVTTRPPDGSVTVTSLADKSVEEVIAELKAEGYEVLSSAG [r5_613_JUSTAS]”, the entries for the “folding stability dG unfold” value in data set [1], in data set [2] and in data set [3] were 4 ± 0.18 kcal/mol, 2.99 ± 0.03 kcal/mol and 3.25 ± 0.039 kcal/mol, respectively.

As to “SAGGAPIEAAPDEEITLTFTLTVRFRGPDGAEGTATFRLTVPVKVEPVPPVPEPRVFRLPDGSEVTLGSAGG [r13_401_TrMRF]”, the entries for the “folding stability dG unfold” value in data set [1], in data set [2] and in data set [3] were 1.48 ± 0.057 kcal/mol, 1.66 ± 0.12 kcal/mol and 1.64 ± 0.12 kcal/mol, respectively.

As to “SAGGAPLPLPPDVPVTLTFTEVTFSLNESGETGYTVSTTTVPVPVEPVPPVPLPVLVVWPDGSAVALLSAGG [r13_401_JUSTAS]”, the “folding stability dG unfold” value worked out at 1.3 ± 0.067 kcal/mol in data set [1], 2.23 ± 0.051 kcal/mol in data set [2] and 1.89 ± 0.059 kcal/mol in data set [3].

As for “SAGGAPLSSSEEVEALLKEGGAEFVSKTSVTITEPGVPVTVNVYTIRVKDPSSDKWTLVEVPSSLLSSAGGS [r16_271_JUSTAS]”, the “folding stability dG unfold” value in data set [1] worked out at 0.192 ± 0.12 kcal/mol; in data set [2], 0.429 ± 0.2 kcal/mol; in data set [3], 0.409 ± 0.15 kcal/mol.

Take “SAGGAPVGKFKFELNFPELGENVRSVEATVDPVKGTVTVNFELPGSGKPLTLTVPVKLVSPDNPELFSAGGS [r8_193_TrMRF]”: the entries for the “folding stability dG unfold” value in data set [1], in data set [2] and in data set [3] were 0.37 ± 0.059 kcal/mol, 0.759 ± 0.12 kcal/mol and 0.613 ± 0.082 kcal/mol, respectively.

For “SAGGASVDRELTDPVTGDKIEVTITRLPDGSWLIEVTVTDAEGKTTKYPKTFPPGSYTPEDTIDFTKDSAGG [r13_959_JUSTAS]”, the “folding stability dG unfold” value in data set [1] came out at 1.92 ± 0.2 kcal/mol; in data set [2], 2.14 ± 0.12 kcal/mol; in data set [3] it was 2.1 ± 0.16 kcal/mol.

Source of the values: the supplement of paper PMC12764529.
